± gives the standard deviation of the averaged measurements.
Test: total protein half-life in vivo (active degradation + dilution); higher = more stable protein
[1] = E. coli NCM3722 delta-hslV, growth: N-lim chemostat, doubling time 6 h
[2] = wild type E. coli NCM3722, growth: C-lim chemostat, doubling time 3 h
[3] = wild type E. coli NCM3722, growth: C-lim chemostat, doubling time 6 h
[4] = wild type E. coli NCM3722, growth: C-lim chemostat, doubling time 12 h
[5] = wild type E. coli NCM3722, growth: P-lim chemostat, doubling time 6 h
[6] = wild type E. coli NCM3722, growth: P-lim chemostat, doubling time 12 h
[7] = E. coli NCM3722 delta-clpP delta-lon delta-hslV, growth: N-lim chemostat, doubling time 6 h
[8] = E. coli NCM3722 delta-clpP, growth: N-lim chemostat, doubling time 6 h
[9] = E. coli NCM3722 delta-lon, growth: N-lim chemostat, doubling time 6 h
[10] = E. coli NCM3722 delta-smpB, growth: N-lim chemostat, doubling time 6 h
[11] = wild type E. coli NCM3722, growth: N-lim chemostat, doubling time 6 h
[12] = wild type E. coli NCM3722, growth: N-lim chemostat, doubling time 12 h

| Sequence | total protein half-life in vivo [1] [h] | total protein half-life in vivo [2] [h] | total protein half-life in vivo [3] [h] | total protein half-life in vivo [4] [h] | total protein half-life in vivo [5] [h] | total protein half-life in vivo [6] [h] | total protein half-life in vivo [7] [h] | total protein half-life in vivo [8] [h] | total protein half-life in vivo [9] [h] | total protein half-life in vivo [10] [h] | total protein half-life in vivo [11] [h] | total protein half-life in vivo [12] [h] |
| --- | --- | --- | --- | --- | --- | --- | --- | --- | --- | --- | --- | --- |
| METTQTSTIASKDSRSAWRKTDTMWMLGLYGTAIGAGVLFLPINAGVGGMIPLIIMAILAFPMTFFAHRGLTRFVLSGKNPGEDITEVVEEHFGIGAGKLITLLYFFAIYPILLVYSVAITNTVESFMSHQLGMTPPPRAILSLILIVGMMTIVRFGEQMIVKAMSILVFPFVGVLMLLALYLIPQWNGAALETLSLDTASATGNGLWMTLWLAIPVMVFSFNHSPIISSFAVAKREEYGDMAEQKCSKILAFAHIMMVLTVMFFVFSCVLSLTPADLAAAKEQNISILSYLANHFNAPVIAWMAPIIAIIAITKSFLGHYLGAREGFNGMVIKSLRGKGKSIEINKLNRITALFMLVTTWIVATLNPSILGMIETLGGPIIAMILFLMPMYAIQKVPAMRKYSGHISNVFVVVMGLIAISAIFYSLFS [P0AAD6] | 0.951 | 1.85 | 5.62 ± 2.4 | 2.71 | 1.58 | 3.86 ± 0.51 | – | – | – | – | – | – |
| MSFMVSEEVTVKEGGPRMIVTGYSSGMVECRWYDGYGVKREAFHETELVPGEGSRSAEEV | – | 0.36 | 0.469 | – | – | – | 5.18 | 0.609 ± 0.66 | – | – | – | – |
| MSDMHSLLIAAILGVVEGLTEFLPVSSTGHMIIVGHLLGFEGDTAKTFEVVIQLGSILAVVVMFWRRLFGLIGIHFGRPLQHEGESKGRLTLIHILLGMIPAVVLGLLFHDTIKSLFNPINVMYALVVGGLLLIAAECLKPKEPRAPGLDDMTYRQAFMIGCFQCLALWPGFSRSGATISGGMLMGVSRYAASEFSFLLAVPMMMGATALDLYKSWGFLTSGDIPMFAVGFITAFVVALIAIKTFLQLIKRISFIPFAIYRFIVAAAVYVVFF | – | > 4 | – | 11.9 | 6.83 ± 0.96 | – | – | > 8 | 6.08 | 5.89 | – | – |
| MQRGIVWVVDDDSSIRWVLERALAGAGLTCTTFENGAEVLEALASKTPDVLLSDIRMPGMDGLALLKQIKQRHPMLPVIIMTAHSDLDAAVSAYQQGAFDYLPKPFDIDEAVALVERAISHYQEQQQPRNVQLNGPTTDIIGEAPAMQDVFRIIGRLSRSSISVLINGESGTGKELVAHALHRHSPRAKAPFIALNMAAIPKDLIESELFGHEKGAFTGANTIRQGRFEQADGGTLFLDEIGDMPLDVQTRLLRVLADGQFYRVGGYAPVKVDVRIIAATHQNLEQRVQEGKFREDLFHRLNVIRVHLPPLRERREDIPRLARHFLQVAARELGVEAKLLHPETEAALTRLAWPGNVRQLENTCRWLTVMAAGQEVLIQDLPGELFESTVAESTSQMQPDSWATLLAQWADRALRSGHQNLLSEAQPELERTLLTTALRHTQGHKQEAARLLGWGRNTLTRKLKELGME [P0AFB8] | 4.86 ± 0.35 | 2.678 ± 0.0012 | 4.85 ± 0.1 | 8.034 ± 0.033 | 4.22 ± 0.085 | 7.58 ± 0.097 | 5.64 ± 0.8 | 5.18 ± 0.39 | 5.263 ± 0.02 | 4.32 ± 0.052 | 4.72 ± 0.12 | 7.57 ± 0.25 |
| MSCEELEIVWNNIKAEARTLADCEPMLASFYHATLLKHENLGSALSYMLANKLSSPIMPAIAIREVVEEAYAADPEMIASAACDIQAVRTRDPAVDKYSTPLLYLKGFHALQAYRIGHWLWNQGRRALAIFLQNQVSVTFQVDIHPAAKIGRGIMLDHATGIVVGETAVIENDVSILQSVTLGGTGKSGGDRHPKIREGVMIGAGAKILGNIEVGRGAKIGAGSVVLQPVPPHTTAAGVPARIVGKPDSDKPSMDMDQHFNGINHTFEYGDGI [P0A9D4] | 4.32 ± 0.11 | 3.65 ± 0.071 | 5.49 ± 0.22 | 9.82 ± 0.61 | 5.83 ± 0.13 | 11.5 ± 0.77 | 5.17 ± 0.28 | 4.83 ± 0.052 | 4.85 ± 0.097 | 4.76 ± 0.16 | 5.03 ± 0.5 | 7.88 ± 0.39 |
| MMQTVLAKIVADKAIWVEARKQQQPLASFQNEVQPSTRHFYDALQGARTAFILECKKASPSKGVIRDDFDPARIAAIYKHYASAISVLTDEKYFQGSFNFLPIVSQIAPQPILCKDFIIDPYQIYLARYYQADACLLMLSVLDDDQYRQLAAVAHSLEMGVLTEVSNEEEQERAIALGAKVVGINNRDLRDLSIDLNRTRELAPKLGHNVTVISESGINTYAQVRELSHFANGFLIGSALMAHDDLHAAVRRVLLGENKVCGLTRGQDAKAAYDAGAIYGGLIFVATSPRCVNVEQAQEVMAAAPLQYVGVFRNHDIADVVDKAKVLSLAAVQLHGNEEQLYIDTLREALPAHVAIWKALSVGETLPAREFQHVDKYVLDNGQGGSGQRFDWSLLNGQSLGNVLLAGGLGADNCVEAAQTGCAGLDFNSAVESQPGIKDARLLASVFQTLRAY | 4.15 ± 0.2 | 2.91 ± 0.1 | 4.97 ± 0.14 | 7.713 ± 0.011 | 4.9 ± 0.078 | 9.51 ± 0.49 | 4.8 ± 0.34 | 4.62 ± 1 | 5.01 ± 0.64 | 4.1 ± 0.18 | 4 ± 0.086 | 6.392 ± 0.053 |

Reference: the supplement of paper PMC11246515
